Data taken from patent US20090035321A1, “Intercellular adhesion molecules and their binding ligands” (Boehringer Ingelheim Pharmaceuticals, Inc., published 2009).

What was measured:
Assay in all cases: COS cells on LFA-1 coated plastic
[1] = target: ICAM-1 Q62PM/API (human, UniProt P05362)
[2] = target: ICAM-1 D60S/KL (human, UniProt P05362)
[3] = target: ICAM-1 D71/E (human, UniProt P05362)
[4] = target: ICAM-1 T75/A (human, UniProt P05362)
[5] = target: ICAM-1 D60/N (human, UniProt P05362)
[6] = target: ICAM-1 Q73/T (human, UniProt P05362)
[7] = target: ICAM-1 E59/Q (human, UniProt P05362)
[8] = target: ICAM-1 Y83/S (human, UniProt P05362)
[9] = target: ICAM-1 A115N/SV (printed A155N/SV at paragraph 410) (human) (UniProt P05362)
[10] = target: ICAM-1 R13/K (human, UniProt P05362)
[11] = target: ICAM-1 E34/A (human, UniProt P05362)
[12] = target: ICAM-1 R49KV/EKL (human, UniProt P05362)
[13] = target: ICAM-1 S177/G (human, UniProt P05362)
[14] = target: ICAM-1 N103/K (human, UniProt P05362)
[15] = target: ICAM-1 D26QPK/ALPE (human, UniProt P05362)
[16] = target: ICAM-1 Q73/H (human, UniProt P05362)
[17] = target: ICAM-1 D60/K (human, UniProt P05362)
[18] = target: ICAM-1 N175TSA/QTLG (human, UniProt P05362)
[19] = target: ICAM-1 V136GE/GVK (human, UniProt P05362)
[20] = target: ICAM-1 N48/H (human, UniProt P05362)
[21] = target: ICAM-1 R13G/EA (human, UniProt P05362)
[22] = target: ICAM-1 G15/SA (human, UniProt P05362)
[23] = target: ICAM-1 K50V/EL (human, UniProt P05362)
[24] = target: ICAM-1 S74/A (human, UniProt P05362)
[25] = target: ICAM-1 Q1T/KA (human, UniProt P05362)
[26] = target: ICAM-1 S3/T (human, UniProt P05362)
[27] = target: ICAM-1 R125/E (human, UniProt P05362)
[28] = target: ICAM-1 H152HGA/EEGS (human, UniProt P05362)
[29] = target: ICAM-1 S24/A (human, UniProt P05362)
[30] = target: ICAM-1 R166PQ/EPA (human, UniProt P05362)
[31] = target: ICAM-1 N56V/HM (human, UniProt P05362)
[32] = target: ICAM-1 K128/R (human, UniProt P05362)
[33] = target: ICAM-1 L91/A (human, UniProt P05362)
[34] = target: ICAM-1 E59/K (human, UniProt P05362)
[35] = target: ICAM-1 A178/G (human, UniProt P05362)
[36] = target: ICAM-1 E90/K (human, UniProt P05362)
[37] = target: ICAM-1 E87/K (human, UniProt P05362)
[38] = target: ICAM-1 Q1/E (human, UniProt P05362)
[39] = target: ICAM-1 R13/Q (human, UniProt P05362)
[40] = target: ICAM-1 S3VS/AGL (human, UniProt P05362)
[41] = target: ICAM-1 A189T/SI (human, UniProt P05362)
[42] = target: ICAM-1 M64/I (human, UniProt P05362)
[43] = target: ICAM-1 S61/I (human, UniProt P05362)
[44] = target: ICAM-1 N68/K (human, UniProt P05362)
[45] = target: ICAM-1 Y66/T (human, UniProt P05362)

LFA-1 Binding % (% of wild type) [1]: 104 | LFA-1 Binding % (% of wild type) [2]: 1 | LFA-1 Binding % (% of wild type) [3]: 118 | LFA-1 Binding % (% of wild type) [4]: 59 | LFA-1 Binding % (% of wild type) [5]: 92 | LFA-1 Binding % (% of wild type) [6]: 40 | LFA-1 Binding % (% of wild type) [7]: 84 | LFA-1 Binding % (% of wild type) [8]: 42 | LFA-1 Binding % (% of wild type) [9]: 0 | LFA-1 Binding % (% of wild type) [10]: 98 | LFA-1 Binding % (% of wild type) [11]: 0 | LFA-1 Binding % (% of wild type) [12]: 123 | LFA-1 Binding % (% of wild type) [13]: 59 | LFA-1 Binding % (% of wild type) [14]: 12 | LFA-1 Binding % (% of wild type) [15]: 30 | LFA-1 Binding % (% of wild type) [16]: 12 | LFA-1 Binding % (% of wild type) [17]: 14 | LFA-1 Binding % (% of wild type) [19]: 92 | LFA-1 Binding % (% of wild type) [20]: 88 | LFA-1 Binding % (% of wild type) [21]: 2 | LFA-1 Binding % (% of wild type) [22]: 120 | LFA-1 Binding % (% of wild type) [23]: 29 | LFA-1 Binding % (% of wild type) [24]: 70 | LFA-1 Binding % (% of wild type) [25]: 119 | LFA-1 Binding % (% of wild type) [26]: 149 | LFA-1 Binding % (% of wild type) [27]: 81 | LFA-1 Binding % (% of wild type) [28]: 85 | LFA-1 Binding % (% of wild type) [29]: 80 | LFA-1 Binding % (% of wild type) [30]: 75 | LFA-1 Binding % (% of wild type) [31]: 121 | LFA-1 Binding % (% of wild type) [32]: 109 | LFA-1 Binding % (% of wild type) [33]: 87 | LFA-1 Binding % (% of wild type) [34]: 134 | LFA-1 Binding % (% of wild type) [35]: 59 | LFA-1 Binding % (% of wild type) [36]: 34 | LFA-1 Binding % (% of wild type) [37]: 65 | LFA-1 Binding % (% of wild type) [38]: 175 | LFA-1 Binding % (% of wild type) [39]: 78 | LFA-1 Binding % (% of wild type) [40]: 18 | LFA-1 Binding % (% of wild type) [41]: 91 | LFA-1 Binding % (% of wild type) [42]: 111 | LFA-1 Binding % (% of wild type) [43]: 59 | LFA-1 Binding % (% of wild type) [44]: 101 | LFA-1 Binding % (% of wild type) [45]: 135
Substance: purified LFA-1, bound to plastic (from UniProt P20701) (receptor)
LFA-1 Binding % (% of wild type) [18]: 26
